Values joined by “and” are separate entries in the source; they are usually repeats but may differ in a detail not shown here. Equal entries are not always repeated. Where two headings read alike, the source gives them in different places. Values belong to the binder of their own block, whether it stands above or below them.
Tests used:
monomeric cyno Tim3-ECD = target: T1, monomeric cyno Tim3-ECD (cynomolgus, UniProt A0A2K5U3G7 22-195); experiment: SPR BIAcore B4000, Ab captured on anti-mouse IgG, 25 C
T1 construct: extracellular domain; also called cyTim3; cynomolgus Tim3
T1 sequence: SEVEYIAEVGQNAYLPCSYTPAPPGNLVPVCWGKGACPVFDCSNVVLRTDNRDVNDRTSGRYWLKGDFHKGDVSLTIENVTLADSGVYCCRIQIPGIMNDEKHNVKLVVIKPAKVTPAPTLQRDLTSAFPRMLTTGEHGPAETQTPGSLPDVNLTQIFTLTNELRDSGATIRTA

Tim3-ECD-His-Biotin [1] = target: T2, Tim3-ECD-His-Biotin (human, UniProt Q8TDQ0 22-202, biotinylated with BirA Ligase, site not stated); experiment: ELISA on human Tim3
T2 construct: also called human Tim3 (ELISA); Biochem Human

[2] = target: T3, full-length human Tim3 on cells (CHO-K1 stably transfected with plasmid 15312_hTIM3-fl_pUC_Neo) (human, UniProt Q8TDQ0 22-301); experiment: cellular ELISA on CHO-TIM3
T3 construct: Also used as the target of the MLR read-outs (native TIM-3); also called CHO-Tim3; CHO-TIM3

Tim3-ECD-His-Biotin [3] = target: T2, Tim3-ECD-His-Biotin; experiment: ELISA on human Tim3 (values in relation to the samples max value)
[4] = target: T4, huFc fused dimeric human Tim3-ECD (human, UniProt Q8TDQ0 22-202); experiment: SPR, Ab captured, dimer Tim3 (avidity)
T4 construct: also called huTim3Fc; Fc-tagged human Tim3-ECD dimer

[5] = target: T3, full-length human Tim3 on cells (CHO-K1 …); experiment: cellular ELISA on CHO-TIM3 (values in relation to the samples max value)
monomeric human Tim3-ECD [6] = target: T5, monomeric human Tim3-ECD (human, UniProt Q8TDQ0 22-202); experiment: SPR, Ab captured, monomer Tim3
T5 construct: SPR analyte; also called huTim3; hu Tim3-ECD

monomeric human Tim3-ECD [7] = target: T5, monomeric human Tim3-ECD; experiment: SPR BIAcore B4000, Ab captured on anti-mouse IgG, 25 C
[8] = target: T3, full-length human Tim3 on cells (CHO-K1 …); experiment: cell ELISA on CHO-K1 cells with full-length human Tim3
Tim3-ECD-His-Biotin [9] = target: T2, Tim3-ECD-His-Biotin; experiment: ELISA on streptavidin-captured Tim3-ECD-His-Biotin
[10] = target: T4, huFc fused dimeric human Tim3-ECD; experiment: SPR BIAcore B4000, Ab captured on anti-mouse IgG, 25 C, dimeric antigen (avidity)
[11] = target: T6, full-length human PD1 on cells (CHO-K1 stably transfected with plasmid 15311_hPD1-fl_pUC_Neo) (human, UniProt Q15116 25-288); experiment: cell-based or functional assay
[12] = target: T6, full-length human PD1 on cells (CHO-K1 …); experiment: cell-based or functional assay; remark: listed apart in the source
human PD1-ECD [13] = target: T7, human PD1-ECD (human, UniProt Q15116 25-170); experiment: SPR Biacore T200, Ab captured on anti-human IgG, 25 C
T7 construct: SPR analyte; also called hu PD1-ECD

[14] = target: T6, full-length human PD1 on cells (CHO-K1 …); experiment: cell-based or functional assay; remark: listed apart in the source
[15] = target: T8, biotinylated PD1-ECD-AviHis (human, UniProt Q15116 25-170, biotinylated, site not stated); experiment: ELISA on coated biotinylated PD1-ECD-AviHis
T8 construct: also called huPD1; hu PD1

[16] = target: T8, biotinylated PD1-ECD-AviHis; experiment: ELISA on coated biotinylated PD1-ECD-AviHis; remark: listed apart in the source
human PD1-ECD [17] = target: T7, human PD1-ECD; experiment: SPR; row head 'Affinity KD 37°C [nM] *)', second of two values (equals the 25 C value of Table 9); second of the two values in the cell; footnote *) not given, so the difference from the first value is not told
human PD1-ECD [18] = target: T7, human PD1-ECD; experiment: SPR; row head 'Affinity KD 37°C [nM] *)', first of two values, footnote not explained; first of the two values in the cell; row head KD 37°C, footnote *) not given
[19] = target: T9, Tim3-CLIP (on transiently transfected HEK293 cells) (human, CLIP-tag labelled with Clip-Red); experiment: cell-based TR-FRET on SNAP-tagged PD1 / CLIP-tagged TIM3 HEK293 cells, 1 h at 4 C; signal needs both receptors bound at once
T9 construct: The plasmid encodes residues 1-202 including the signal peptide; also called CLIP-tagged TIM3

[20] = target: T8, biotinylated PD1-ECD-AviHis; experiment: ligand replacing ELISA on coated PD1-ECD-AviHis; row head 'IC50 PD-L1, 2', competitor not told apart; blocking of ligand binding; head says 'PD-L1, 2', competitor not told apart
[21] = target: T6, full-length human PD1 on cells (CHO-K1 …); experiment: cell-based or functional assay; remark: listed apart in the source
[22] = target: T10, biotinylated TIM3-ECD-AviHis (human, UniProt Q8TDQ0 22-202, biotinylated, site not stated); experiment: ELISA on coated biotinylated TIM3-ECD-AviHis
T10 construct: also called huTIM3; Hu TIM3

Kd (monomeric cyno Tim3-ECD): 28.4 nM
B1: Tim3_0022 (antibody, V domains shown)
VH: EVQLQESGPSLVKPSQTLSLTCSVTGDSIASAYWNWIRKFPGNKLEYMGYINYSGSTYYNPSLKSRISITRDTSQNQYYLQLNSVTTEDTATYYCVTGDYFDYWGRGTTLTVSS
VL: DIQMTQSPSSLSAYLGGKVTITCKARQDVRKNIGWYQHKPGKGPRLLIWYTSTLQSGIPSRFSGSGSGRDYSFNINNLEPEDIATYYCLQYDNLPFTFGTGTKLEIR

Inflexion point (Tim3-ECD-His-Biotin [1]): 15.3 ng/mL
Inflexion point [2]: 29.4 ng/mL
EC50 (Tim3-ECD-His-Biotin [3]): 0.0151 µg/mL
Kd [4]: 1.1 nM
EC50 [5]: 0.0264 µg/mL
Kd (monomeric human Tim3-ECD [6]): 3.4 nM
Kd (monomeric human Tim3-ECD [7]): 3.4 nM
EC50 [8]: 0.52 nM and 0.087 µg/mL
EC50 (Tim3-ECD-His-Biotin [9]): 0.56 nM and 0.094 µg/mL
Kd [10]: 1.11 nM
B2: Tim3_0016 variant (0018) (antibody, V domains shown)
VH: QVTLKESGPGILQPSQTLSLTCSFSGFSLSTSGMSVGWIRQPSGKGLEWLAHIWLNDDVFFNPALKRRLTISKDTSNNQVFLQIASVVTADTATYYCVRANGYLYALDYWGQGISVTVSS
VL: QIVLTQSPAIMSASPGQKVTITCSASSSVNYTQWYQQKLGSSPKLWIYDAFKLAPGVPARFSGSGTGTSYSLTISSMEAEDAASYFCHQWSSYPWTFGGGTKLEIK
notes: Mouse monoclonal antibody; also called Tim3_0018; Tim3 0018

EC50 of IFN-gamma secretion in MLR, donors D2 + D6 [11]: 7.7 nM
EC50 of IFN-gamma secretion in MLR, donors D2 + D6 [12]: 6 nM
Kd (human PD1-ECD [13]): 0.8 nM
koff (human PD1-ECD [13]): 0.000307 s⁻¹
kon (human PD1-ECD [13]): 386000 M⁻¹ s⁻¹
EC50 of IFN-gamma secretion in MLR, donors D1 + D3 [14]: 5.7 nM
EC50 of IFN-gamma secretion in MLR, donors D2 + D4 [14]: 5.7 nM
EC50 [15]: 0.12 nM
EC50 [16]: 0.2 nM
Kd (human PD1-ECD [17]): 0.8 nM
Kd (human PD1-ECD [18]): 2 nM
binding result [19]: no binding (tested: about 20 nM)
IC50 [20]: 1.35 nM
EC50 of IFN-gamma secretion in MLR, donors D2 + D6 [21]: 6.5 nM
binding result [22]: no binding
B3: chimeric PD1-0103 (antibody, human IgG1, V domains shown)
VH: EVILVESGGGLVKPGGSLKLSCAASGFSFSSYTMSWVRQTPEKRLDWVATISGGGRDIYYPDSVKGRFTISRDNAKNTLYLEMSSLMSEDTALYYCVLLTGRVYFALDSWGQGTSVTVSS
VL: KIVLTQSPASLPVSLGQRATISCRASESVDTSDNSFIHWYQQRPGQSPKLLIYRSSTLESGVPARFSGSGSRTDFTLTIDPVEADDVATYYCQQNYDVPWTFGGGTKLEIK

From patent publication US20190322748A1 (Hoffmann-La Roche, published 2019)
